Sequences and labels used below:
B1: Hammerhead Ribozyme (parent)
chain: ACCGGAUGUGCUUUCCGGUCUGAUGAGUCCGUGAGGACGAAACAG

In the RNAGym collection of RNA variant scans (doi:10.7554/elife.80360) one finds self-cleavage data, which are given here for 57 variants.

The data set covers variants of B1. Put plainly: self-cleavage, relative activity (ratio to wild type); higher = more cleavage; co-transcriptional.
For the variant ACCGGAAGUGCUUUCCGGUCUCAUGAGUCCGUGAGGACGAAACAG, the self-cleavage stood at 0.309. The figure for ACCGGAAGUGCUUUCCGGUCUUAUGAGUCCGUGAGGACGAAACAG is 0.231; for ACCGGAAGUGCUUUCCGGUCUAAUGAGUCCGUGAGGACGAAACAG it is 0.291; for ACCGGAACUGCUUUCCGGUCUGAUGAGUCCGUGAGGACGAAACAG it is 1.21. The figure for ACCGGAAAUGCUUUCCGGUCUGAUGAGUCCGUGAGGACGAAACAG is 1.23.

Turning to ACCGGAAUUGCUUUCCGGUCUGAUGAGUCCGUGAGGACGAAACAG, the self-cleavage came out at 1.52. The figure for ACCGGACGUGCUUUCCGGUUUGAUGAGUCCGUGAGGACGAAACAG is 0.492. The figure for ACCGGACGUGCUUUCCGGUAUGAUGAGUCCGUGAGGACGAAACAG is 0.5; for ACCGGACGUGCUUUCCGGUGUGAUGAGUCCGUGAGGACGAAACAG it is 0.306. The figure for ACCGGAAGGGCUUUCCGGUCUGAUGAGUCCGUGAGGACGAAACAG is 1.32; for ACCGGAAGAGCUUUCCGGUCUGAUGAGUCCGUGAGGACGAAACAG it is 0.874; for ACCGGAAGCGCUUUCCGGUCUGAUGAGUCCGUGAGGACGAAACAG it is 1.04. With ACCGGAAGUCCUUUCCGGUCUGAUGAGUCCGUGAGGACGAAACAG, the self-cleavage turned out to be 1.34. Consider ACCGGAAGUACUUUCCGGUCUGAUGAGUCCGUGAGGACGAAACAG, for which the self-cleavage turned out to be 1.33.

As for ACCGGAAGUUCUUUCCGGUCUGAUGAGUCCGUGAGGACGAAACAG, the self-cleavage is 1.44.

In the case of ACCGGACGUGCUUUCCGGUCUGAUGAGUCCGUGUGGACGAAACAG, the self-cleavage was 0.995. The figure for ACCGGACGUGCUUUCCGGUCUGAUGAGUCCGUGGGGACGAAACAG is 0.863; for ACCGGACGUGCUUUCCGGUCUGAUGAGUCCGUGCGGACGAAACAG it is 1.16. For the variant ACCGGAAGUGCUUUCCGGUCUGAUGAGUCCGUGAGUACGAAACAG, the self-cleavage is 0.585. The figure for ACCGGAAGUGCUUUCCGGUCUGAUGAGUCCGUGAGAACGAAACAG is 0.681; for ACCGGAAGUGCUUUCCGGUCUGAUGAGUCCGUGAGCACGAAACAG it is 0.394. The figure for ACCGGACGUGGUUUCCGGUCUGAUGAGUCCGUGAGGACGAAACAG is 1.37; for ACCGGACGUGAUUUCCGGUCUGAUGAGUCCGUGAGGACGAAACAG it is 1.37. The figure for ACCGGACGUGUUUUCCGGUCUGAUGAGUCCGUGAGGACGAAACAG is 0.433; for ACCGGACGUGCUUUCCGGUCUGAUGAGUCCGUGAGGGCGAAACAG it is 0.771. For the variant ACCGGACGUGCUUUCCGGUCUGAUGAGUCCGUGAGGUCGAAACAG, the self-cleavage is 0.621. For the variant ACCGGACGUGCUUUCCGGUCUGAUGAGUCCGUGAGGCCGAAACAG, the self-cleavage is 0.828. For the variant ACCGGACGUGCUUUCCGGUCUGAUGUGUCCGUGAGGACGAAACAG, the self-cleavage is 0.48.

Take ACCGGACGUGCUUUCCGGUCUGAUGGGUCCGUGAGGACGAAACAG: the self-cleavage was 0.305. The figure for ACCGGACGUGCUUUCCGGUCUGAUGCGUCCGUGAGGACGAAACAG is 0.373; for ACCGGACGUGCUUUCUGGUCUGAUGAGUCCGUGAGGACGAAACAG it is 1.06.

Take ACCGGACGUGCUUUCGGGUCUGAUGAGUCCGUGAGGACGAAACAG: the self-cleavage was determined as 0.487.

As for ACCGGACGUGCUUUCAGGUCUGAUGAGUCCGUGAGGACGAAACAG, the self-cleavage is 0.738. Regarding ACCGGAAGUGCUUUCCGCUCUGAUGAGUCCGUGAGGACGAAACAG, the self-cleavage came to 0.365. In the case of ACCGGAAGUGCUUUCCGAUCUGAUGAGUCCGUGAGGACGAAACAG, the self-cleavage amounted to 0.539.

In the case of ACCGGAAGUGCUUUCCGUUCUGAUGAGUCCGUGAGGACGAAACAG, the self-cleavage is 0.569. With ACCGGACGUGCUUUCCGGUCUGAUGAGUCCGUGAGGACGAACCAG, the self-cleavage stood at 0.3. The figure for ACCGGACGUGCUUUCCGGUCUGAUGAGUCCGUGAGGACGAAUCAG is 0.312; for ACCGGACGUGCUUUCCGGUCUGAUGAGUCCGUGAGGACGAAGCAG it is 0.306. The figure for ACCGGAAGUGCUUUCCGGGCUGAUGAGUCCGUGAGGACGAAACAG is 0.25. The figure for ACCGGAAGUGCUUUCCGGACUGAUGAGUCCGUGAGGACGAAACAG is 0.377; for ACCGGAAGUGCUUUCCGGCCUGAUGAGUCCGUGAGGACGAAACAG it is 0.402; for ACCGGAAGUGCUUUCCGGUCUGAGGAGUCCGUGAGGACGAAACAG it is 0.882.

For the variant ACCGGAAGUGCUUUCCGGUCUGAAGAGUCCGUGAGGACGAAACAG, the self-cleavage was determined as 1.26.

As for ACCGGAAGUGCUUUCCGGUCUGACGAGUCCGUGAGGACGAAACAG, the self-cleavage was 0.976. The figure for ACCGGAAGUGCUUUCCGGUCUGAUGAGACCGUGAGGACGAAACAG is 0.77; for ACCGGAAGUGCUUUCCGGUCUGAUGAGGCCGUGAGGACGAAACAG it is 0.758; for ACCGGAAGUGCUUUCCGGUCUGAUGAGCCCGUGAGGACGAAACAG it is 1.26.

Regarding ACCGGAAGUGCUCUCCGGUCUGAUGAGUCCGUGAGGACGAAACAG, the self-cleavage turned out to be 1.43.

In the case of ACCGGAAGUGCUAUCCGGUCUGAUGAGUCCGUGAGGACGAAACAG, the self-cleavage is 1.42.

As for ACCGGAAGUGCUGUCCGGUCUGAUGAGUCCGUGAGGACGAAACAG, the self-cleavage came out at 1.29. The figure for ACCGGAAGUGCUUUCCGGUCAGAUGAGUCCGUGAGGACGAAACAG is 0.359; for ACCGGAAGUGCUUUCCGGUCCGAUGAGUCCGUGAGGACGAAACAG it is 0.628; for ACCGGAAGUGCUUUCCGGUCGGAUGAGUCCGUGAGGACGAAACAG it is 0.319. Take ACCGGAAGUGCUUUCCGGUCUGAUGAGUCCGUGAGGACUAAACAG: the self-cleavage is 0.289. The figure for ACCGGAAGUGCUUUCCGGUCUGAUGAGUCCGUGAGGACAAAACAG is 0.27. The figure for ACCGGAAGUGCUUUCCGGUCUGAUGAGUCCGUGAGGACCAAACAG is 0.321.
